This is an account of results in the DeepSol protein solubility set.

A short description of the data set: soluble on expression in E. coli; label from the status in PepcDB or PDB records.
Consider “MLPDSSVRLNKYISESGICSRREADRYIEQGNVFLNGKRATIGDQVKPGDVVKVNGQLIEPREAEDLVLIALNKPVGIVSTTEDGERDNIVDFVNHSKRVFPIGRLDKDSQGLIFLTNHGDLVNKILRAGNDHEKEYLVTVDKPITEEFIRGMSAGVPILGTVTKKCKVKKEAPFVFRITLVQGLNRQIRRMCEHFGYEVKKLERTRIMNVSLSGIPLGEWRDLTDDELIDLFKLIENSSSEVKPKAKAKPKTAGIKRPVVKMEKTAEKGGRPASNGKRFTSPGRKKKGRLEHHHHHH”, for which the “soluble on expression in E. coli” value is on record as “soluble”.

In the case of “MRCMTLPAYDIAILGAGPVGRVLALLLARLTPQPQRIALLQGGAGLPPTPAGTLGPAADPRVLALNHGSRVLLESLRAWPAHAAEIRHIHVSQRGRLGRTVIDREDFDVPQLGNVVAYAALHAQLEQAVQDCGVTVLSGPPARVDGQDGEGLTVRQGDAALHCRLAVQCDGAGGSDVRRDYAQHAVLTSAHATLPRSGWAWERFTNEGPLAMLPHPQTPEAYSVVWCCAPPRARRLAGLDDEAFSRELTEAFGTRLGRLRSAAPRHVFPLELKARHAQAHGRLATIGNAAQTLHPVAGQGLNLGLRDAAQLAHALPDWLAAPQADPSPLLATFARARLADRWVTAGLTDLMPRIFATGLAPVEHACGLALLGLDIAAPLRAPLARHLLQGLRVLEHHHHHH”, the “soluble on expression in E. coli” value is reported as “soluble”. With “MTNKKKEITIHSSAAEYLTYVASTGRNSDSFEMRYEDENIWLTQKMMATLYDVSVSAINQHLKRIFEDDELVEESVIKKYLITASDGKSYSTKHYNLQAIIAVGFKVNNDRAVRFRKWAGQIVKDYTIQGWTMDKERLKKGHMFTDEYFERQLENIREIRLSERKFYQKVTDLYATAFDYDKDAKTTRQFFKMVQNKMHWAVHRHTAAELIVERANAEKEHMGLTTWESAPDGKIVKADVTVAKNYLSEKEMSYLQRIVSLYLDYAELQAERRIPMSMEDWAKRLDGFLEFNGNELLMGLGKVSAEQAKLHAETEFEKYRIVQDRLFMSDYDKYLIELEHQADQSDV” the entry was “not soluble”.

With “HHHHHHMTTINPTNYTLLKKQAASLIEDEHHMIAILSNMSALLNDNLDQINWVGFYLLEQNELILGPFQGHPACVHIPIGKGVCGTAVSERRTQVVADVHQFKGHIACDANSKSEIVVPIFKDDKIIGVLDIDAPITDRFDDNDKEHLEAIVKIIEKQLA”, the “soluble on expression in E. coli” value is listed as “soluble”. The result for “MKHHHHHHPMGHMQTLIFLDLEATGLPSSRPEVTELCLLAVHRRALENTSISQGHPPPVPRPPRVVDKLSLCIAPGKACSPGASEITGLSKAELEVQGRQRFDDNLAILLRAFLQRQPQPCCLVAHNGDRYDFPLLQTELARLSTPSPLDGTFCVDSIAALKALEQASSPSGNGSRKSYSLGSIYTRLYWQAPTDSHTAEGDVLTLLSICQWKPQALLQWVDEHARPFSTVKPMYGTPATTGTTNLR” reads “soluble”; that for “MGHHHHHHSHMGYIYIVSFGDVEDRLLLADASNVKEIFDLEVRVSTVKADIEEAYNPQRNQYHAGTILSYLSRVVYPDMVRLVALVSFDLYEEGLNFVFGEAQYGGKYAVVSTYRLYHPDERVFFERVFKETNHELGHTFGLKHCPDPYCVMSFSNSIDEVDRKSRDFCPNCRRKLDYVLSYYR”, “not soluble”. With “MGALGYHPYFESNMIHSMTAFAADEHLTPWGLLACELRSVNHRFLDIVIRLPEELRALEPQLRERVAARVSRGKLDLTVRLSPQEIHTGKLVVNELLLSQLSTLALRLSAQFPALRVTFAELLQIPGVLKGEQIDMATLQGHAVALLDKVLNNFIATREREGLKMQAMIAQRASAIERIVGEVRILIPTIREGQHNKLSARMNHLSYPVDPGRIEQELVLWLQKLDVDEELDRLSSHISELHRILQQREPVGRRLDFLMQEFNREANTLGSKSVDSRTSNATIELKVLIDQIREQVQNIE” the entry was “soluble”; with “MGSDKIHHHHHHMEGNLKHNNGYCVICEKEATFIEHNDWLRDHYLCSTCHSIPRQRALIHVLNTFFPKWDSYHIHESSPGGITTQLLIKNCKNYTYSQYFKNYPLGQYFQGIRCENLENMTFQDESFDLFITQDVFEHVMEPNKAFKEIERVLKPGGAHVFTVPWYHTLPKTLQRARINEDGIEYIEEPIYHGNPIDENGSLVTFDWGQDMIEYIYTHANMYTLVYLQKDKSLGLDAEFLHVFISRKQENNF”, “not soluble”; with “MYSRADRLLRQFSLKLNTDSIVFDENRLCSFIIDNRYRILLTSTNSEYIMIYGFCGKPPDNNNLAFEFLNANLWFAENNGPHLCYDNNSQSLLLALNFSLNESSVEKLECEIEVVIRSMENLYHILQDKGITLDTDYTHHHHHH”, “soluble”.

As to “MGSDKIHHHHHHMATSQERLGMNLKKCIQRLRKVANRGPSHKARLENIDEKIVVTGTRGKSGATRWLYEILYGRGRDAFAKITGNRPLVLHDGESHPIERGRRVTLYENEAQLRQYAPVETAIFENQAIGEYTTRTVHQRFTDPDVIFLTNIRSDHLDWLGDTPTQIARSFARTIPDGVTLVVGEQRPTLRAMLKRELEETDVQIRWVLVPKALQNVPGAETILGLNDVLEALGEQPLSDRQIEAYIDEMQVRWTTLADGRVYNAASVNDIDSTEIVRRALDDNDVDTIQPLIYLRPDRRARTASFLSYLDGLYSDDVFEVTHAVGPHAELFDNQASFPVATHDASKSASAVLDAALSPGWPVFIMGNTVADFMRDLEAEIEARRVDSSQGMPEKSTSANEKRAIERPQ”, the “soluble on expression in E. coli” value is on record as “not soluble”. With “GRAGGRTLGEQWKEKLNAMGKEEFFSYRKEAILEVDRTEARRARREGNKVGGHPVSRGTAKLRWLVERRFVQPIGKVVDLGCGRGGWSYYAATMKNVQEVRGYTKGGPGHEEPMLMQSYGWNIVTMKSGVDVFYKPSEISDTLLCDIGESSPSAEIEEQRTLRILEMVSDWLSRGPKEFCIKILCPYMPKVIEKLESLQRRFGGGLVRVPLSRNSNHEMYWVSGASGNIVHAVNMTSQVLIGRMDKKIWKGPKYEEDVNLGSGTRAVGK” the entry was “soluble”. The result for “MVAHDETGGLLPIKRTIRVLDVNNQSFREQEEPSNKRVRPLARVTSLANLISPVRNGAVRRFGQTIQSFTLRGDHRSPASAQKFSSRSTVPTPAKRRSSALWSEMLDITMKESLTTREIRRQEAIYEMSRGEQDLIEDLKLARKAYHDPMLKLSIMSEEELTHIFGDLDSYIPLHEDLLTRIGEATKPDGTVEQIGHILVSWLPRLNAYRGYCSNQLAAKALLDQKKQDPRVQDFLQRCLESPFSRKLDLWSFLDIPRSRLVKYPLLLKEILKHTPKEHPDVQLLEDAILIIQGVLSDINLKKGESECQYYIDKLEYLDEKQRDPRIEASKVLLCHGELRSKSGHKLYIFLFQDILVLTRPVTRNERHSYQVYRQPIPVQELVLEDLQDGDVRMGGSFRGAFSNSEKAKNIFRIRFHDPSPAQSHTLQANDVFHKQQWFNCIRAAIAPFQSAGSPPELQGLPELHEECEGNHPSARKLTAQRRASTVSSVTQVEVDENAYRCGSGMQMAEDSKSLKTHQTQPGIRRARDKALSGGKRKETLV” reads “soluble”; that for “MRPEELTKRFNEFSLWMTEEGVEQMSSYRNTNWEALKTELGKLPTLRHSCKNHVPQLVKEFCLEKRRYGVNPMYVHFLFCYYKKNIEDTRGRLEDDKETLEEIQRTHDELNVKFEELNKVKTFIKKQKESKGNVYLPNEYTEKHRLQNTIDNLKDKIQILVSTRNEQLWDFDNIPDGFQPMLELHHLKKDQVVYFVEKYLQRYTLGNKHKEIQLIVGKGSHSIDNDSAIQRKIRRNYAENVRSHPKNYGILLLKVP”, “not soluble”; that for “MQNLRRAVFAGLVAGTLSEGAAATAGDGGFVEDSELQFLARTYYFNRDYRDSPNNAGRNRFKPRSERNGYREEATQGLRLQFASGYTPGSLGFGLDAHAMLGLQLDSGGGRTGTGNLPVGADGHPDHRYGKVGGALRLRHGETRLKYGQTTTSAPVFAASSNRTLAGMAYGLLLEDRSFDGLLLEGGRFTAASGPGESKVRGDISTVYGRLGAYPVRLDAVGFLGGQWQATERLQLSLYASRFDDIWQQAYFGASHRQPLGGERALRVDLDAYRTRDSGQSRFGRIDTLTSSLALGYEHGPQRITLAYQRVHGEQPFDYMAFGDGRSSASMVLANSVGYSDFNGPGERSWQLRYDLDLGALGLPGLSLHALHARGRAGASASSAAESIYAGLYGRDGRHRENDLGFAYRVKAGPLAGLALRASQAWHRGNASYLDGDIDETRLVVDYSRSIW”, “not soluble”.
